Values quoted from earlier work, collected in paper PMC6767261.

Target: Endothelin receptor type B (UniProt P24530)
Assay: radioligand

UniProt P24530, sequence (P24530 27-442): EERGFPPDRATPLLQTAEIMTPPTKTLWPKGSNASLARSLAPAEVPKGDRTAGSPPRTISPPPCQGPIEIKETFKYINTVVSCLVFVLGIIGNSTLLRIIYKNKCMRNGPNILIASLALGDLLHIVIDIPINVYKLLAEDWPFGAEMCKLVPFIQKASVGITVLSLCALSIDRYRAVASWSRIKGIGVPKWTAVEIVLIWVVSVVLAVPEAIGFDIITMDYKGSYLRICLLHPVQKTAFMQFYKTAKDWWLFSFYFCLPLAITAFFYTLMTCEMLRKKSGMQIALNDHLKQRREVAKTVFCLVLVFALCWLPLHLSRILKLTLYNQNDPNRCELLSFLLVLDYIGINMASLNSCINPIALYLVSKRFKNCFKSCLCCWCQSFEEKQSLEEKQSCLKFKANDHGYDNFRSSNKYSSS

| Kd | Substance |
| --- | --- |
| 142 nM | Endothelin-1 ([125I]-ET-1), ciliary muscle (from UniProt P05305) |
| 54.5 nM | Endothelin-1 ([125I]-ET-1), ciliary epithelium (from UniProt P05305) |
